According to patent US20200123233A1:

B1: LG214F8 (VHH)
VHH: EVQLVESGGDLVQAGGSLRLSCVASGSTYSINAMGWYRQAPGKLRELVAAFRTGGSTDYADSVKGRFTISRDTAKNTVYLQMNSLKPEDTAVYYCNAEVIYYPYDYWGQGTQVTVSS
B2: LG192C4 (VHH)
VHH: EVQLVESGGGLVQAGGSLRLSCEASGRTFSSYAMVGWFRQAPGKEREFVAAVTRWSGARTVYADSVKGRFTISRDNAENTVYLQMNSLKPEDTAVYTCAADSTNRNSGAVYYSWAYDYWGQGTQVTVSS
B3: LG214A8 (VHH)
VHH: EVQLVKSGGGSVQAGGSLRLSCAASGGTFNPYVMAWFRQAPGNEREFVARIRWSGGDAYYDDSVKGRFAITRDAAKNTVHLQMNSLKPEDTAVYYCAAATYGYGSYTYGGSYDLWGQGTQVTVSS
B4: LG213D6 (VHH)
VHH: EVQLVESGGGLVQPGGSLRLSCAASGFTFGDSDMSWVRQAPGEGPEWVAGINSGGGSTVYADSVKGRFTISRDNAKNMLYLQMNSLKPEDTAVYLCAQGLMAEVTAGYWGQGTQVTVSS
B5: LG213B7 (VHH)
VHH: EVQLVESGGGLVQAGGSLRLSCTVSGDTFDNSAAGWYRATSETQRELVARIRSSGSTNYADSVKGRFTVSRDNAKNTVYLQMNSLKPEDTAVYYCNVVSYGEYFWGKGTLVTVSS
B6: LG213D7 (VHH)
VHH: B5 VHH
B7: LG214C10 (VHH)
VHH: EVQLVESGGGLVQPGGSLRLSCAASGFIFGSYDMSWVRQAPGKGPEWVSGINSGGGSTGYADSVKGRFTISRDNAKNTLYLQMNSLKPEDTAVYYCSTNLYPTTDDVWGQGTQVTVSS
B8: LG191E4 (VHH)
VHH: EVQLVESGGGLVQAGGSLRLSCAASGPTFSADTMGWFRQAPGKEREFVATIPWSGGIAYYSDSVKGRFTMSRDNAKNTVDLQMNSLKPEDTALYYCAGSSRIYIYSDSLSERSYDYWGQGTQVTVSS
B9: 213-E6 5GS 213-E6 (VHH)
chain: EVQLVESGGGLVQAGASLRLSCAASGSTLSRYGVGWFRQAPGKERELVASVDWSGSRTYYADSVKGRFTISRDNAKNTGYLQMNSLKPDDTAVYYCAADSSVVPGIEKYDDWGLGTQVTVSSGGGGSEVQLVESGGGLVQAGASLRLSCAASGSTLSRYGVGWFRQAPGKERELVASVDWSGSRTYYADSVKGRFTISRDNAKNTGYLQMNSLKPDDTAVYYCAADSSVVPGIEKYDDWGLGTQVTVSS
B10: 214-E8 15GS 214-E8 (VHH)
chain: EVQLVESGGGSVQAGGSLRLSCAASGGTFNPYVMAWFRQAPGNEREFVARIRWSGGDAYYDDSVKGRFAITRDAAKNTVHLQMNSLKPEDTAVYYCAAATYGYGSYTYGGSYDLWGQGTQVTVSSGGGGSGGGGSGGGGSEVQLVESGGGSVQAGGSLRLSCAASGGTFNPYVMAWFRQAPGNEREFVARIRWSGGDAYYDDSVKGRFAITRDAAKNTVHLQMNSLKPEDTAVYYCAAATYGYGSYTYGGSYDLWGQGTQVTVSS
B11: 212-C12 15GS 212-C12 (VHH)
chain: EVQLVESGGGLVQPGGSLRLSCAASGFTFGSSDMSWVRQAPGKGPEWVSGINSGGGRTLYADSVKGRFTISRDNAKNTLYLQMNSLKSEDTAVYYCATDLYGSSWYTDYWSQGTQVTVSSGGGGSGGGGSGGGGSEVQLVESGGGLVQPGGSLRLSCAASGFTFGSSDMSWVRQAPGKGPEWVSGINSGGGRTLYADSVKGRFTISRDNAKNTLYLQMNSLKSEDTAVYYCATDLYGSSWYTDYWSQGTQVTVSS

How the values were obtained:
Assay in all cases: cell-based or functional assay
[1] = molecular target: Rabies virus glycoprotein G, Challenge Virus Standard (CVS)-11 strain (Rabies virus, strain CVS-11 (genotype 1 Lyssavirus)) (UniProt O92284)
[2] = molecular target: Rabies virus glycoprotein G, ERA strain (attenuated vaccine strain, ATCC VR332) (Rabies virus, ERA strain (genotype 1 lyssavirus)) (UniProt P03524)
[3] = molecular target: Rabies virus glycoprotein G, strain CVS-11 (Challenge Virus Standard-11, ATCC VR 959) (Rabies virus, strain CVS-11)

Sequence of Rabies virus glycoprotein G, ERA strain (attenuated vaccine strain, ATCC VR332) (Rabies virus, ERA strain (genotype 1 lyssavirus)) (P03524 20-524 limits assumed): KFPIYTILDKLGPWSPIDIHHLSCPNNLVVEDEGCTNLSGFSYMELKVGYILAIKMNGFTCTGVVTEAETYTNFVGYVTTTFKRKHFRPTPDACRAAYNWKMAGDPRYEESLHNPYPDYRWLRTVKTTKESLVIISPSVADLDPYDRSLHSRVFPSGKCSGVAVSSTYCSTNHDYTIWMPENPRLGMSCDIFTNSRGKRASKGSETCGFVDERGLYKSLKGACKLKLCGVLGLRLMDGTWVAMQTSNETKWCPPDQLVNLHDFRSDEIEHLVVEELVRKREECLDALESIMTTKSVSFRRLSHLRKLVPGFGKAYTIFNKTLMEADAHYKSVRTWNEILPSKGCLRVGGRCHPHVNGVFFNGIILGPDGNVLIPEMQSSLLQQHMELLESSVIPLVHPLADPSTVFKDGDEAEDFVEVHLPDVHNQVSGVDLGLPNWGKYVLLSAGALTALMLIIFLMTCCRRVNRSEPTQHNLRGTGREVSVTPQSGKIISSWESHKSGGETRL
Sequence of Rabies virus glycoprotein G, Challenge Virus Standard (CVS)-11 strain (Rabies virus, strain CVS-11 (genotype 1 Lyssavirus)) (O92284 20-524 limits assumed): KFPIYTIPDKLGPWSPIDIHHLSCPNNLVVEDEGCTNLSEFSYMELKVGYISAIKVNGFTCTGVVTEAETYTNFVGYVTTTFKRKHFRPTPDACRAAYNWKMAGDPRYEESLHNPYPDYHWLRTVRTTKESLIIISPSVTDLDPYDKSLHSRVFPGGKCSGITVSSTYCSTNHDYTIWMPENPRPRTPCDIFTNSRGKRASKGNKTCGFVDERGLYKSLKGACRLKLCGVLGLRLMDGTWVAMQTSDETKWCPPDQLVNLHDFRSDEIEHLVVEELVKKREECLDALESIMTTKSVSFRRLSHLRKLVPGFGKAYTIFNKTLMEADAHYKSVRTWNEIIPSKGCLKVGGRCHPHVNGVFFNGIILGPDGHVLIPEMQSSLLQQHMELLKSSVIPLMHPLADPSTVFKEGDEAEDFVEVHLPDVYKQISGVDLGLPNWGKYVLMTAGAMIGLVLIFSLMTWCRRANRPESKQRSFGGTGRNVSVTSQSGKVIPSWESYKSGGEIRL

| Binder | CVS-11 neutralizing antibody titer (RFFIT), IU/mg [1] [IU/mg] | CVS-11 neutralizing antibody titer (RFFIT), IU/ml [1] [IU/ml] | CVS-11 neutralizing antibody titer (RFFIT), IU/µM [1] [IU/µM] | CVS-11 neutralizing antibody titer (RFFIT), nM IC50 [1] [nM] | ERA neutralizing antibody titer (RFFIT): EU/mg [2] [EU/mg] | ERA neutralizing antibody titer (RFFIT): EU/ml [2] [EU/ml] | ERA neutralizing antibody titer (RFFIT): EU/µM [2] [EU/µM] | ERA neutralizing antibody titer (RFFIT): nM IC50 [2] [nM] | CVS neutralizing antibody titre (RFFIT): IU/mg [3] [IU/mg] | CVS neutralizing antibody titre (RFFIT): IU/ml [3] [IU/ml] | CVS neutralizing antibody titre (RFFIT): IU/nM [3] [IU/nM] | CVS neutralizing antibody titre (RFFIT): nM IC50 [3] [nM] | Potency (IU/nM) increase versus monovalent [3] [fold] |
| --- | --- | --- | --- | --- | --- | --- | --- | --- | --- | --- | --- | --- | --- |
| B1 | 7.19 | 1.15 | 0.11 | 325 | 23.8 | 3.81 | 0.36 | 94 | – | – | – | – | – |
| B2 | < 0.63 | < 0.5 | < 0.01 | > 5880 | < 0.63 | < 0.5 | < 0.01 | > 5880 | – | – | – | – | – |
| B3 | 7.93 | 9.12 | 0.12 | 293 | < 0.43 | < 0.5 | < 0.01 | > 8560 | – | – | – | – | – |
| B4 | < 0.48 | < 0.5 | < 0.01 | > 7820 | < 0.48 | < 0.5 | < 0.01 | > 7820 | – | – | – | – | – |
| B5 | 7.38 | 4.87 | 0.11 | 316 | 8.35 | 5.51 | 0.12 | 268 | – | – | – | – | – |
| B6 | 7.61 | 5.1 | 0.11 | 305 | 8.91 | 5.97 | 0.13 | 251 | – | – | – | – | – |
| B7 | 10.6 | 4.24 | 0.16 | 220 | 35.1 | 14 | 0.52 | 63.7 | – | – | – | – | – |
| B8 | < 0.63 | < 0.5 | < 0.01 | > 5960 | < 0.63 | < 0.5 | < 0.01 | > 5960 | – | – | – | – | – |
| B9 | – | – | – | – | – | – | – | – | 1300 | 1290 | 36 | 0.88 | 27.7 |
| B10 | – | – | – | – | – | – | – | – | 349 | 454 | 9.78 | 3.28 | 31.5 |
| B11 | – | – | – | – | – | – | – | – | 330 | 330 | 8.57 | 3.74 | 4.6 |
